Assay results reported in PMC9352680, “A comprehensive thermodynamic model for RNA binding by the Saccharomyces cerevisiae Pumilio protein PUF4”.
Numbering of substitutions follows the chain as printed. Names and notes keep the numbering of the source.

T1: PUF4 RNA-binding domain (Saccharomyces cerevisiae, UniProt P25339 537-888)
T1 sequence: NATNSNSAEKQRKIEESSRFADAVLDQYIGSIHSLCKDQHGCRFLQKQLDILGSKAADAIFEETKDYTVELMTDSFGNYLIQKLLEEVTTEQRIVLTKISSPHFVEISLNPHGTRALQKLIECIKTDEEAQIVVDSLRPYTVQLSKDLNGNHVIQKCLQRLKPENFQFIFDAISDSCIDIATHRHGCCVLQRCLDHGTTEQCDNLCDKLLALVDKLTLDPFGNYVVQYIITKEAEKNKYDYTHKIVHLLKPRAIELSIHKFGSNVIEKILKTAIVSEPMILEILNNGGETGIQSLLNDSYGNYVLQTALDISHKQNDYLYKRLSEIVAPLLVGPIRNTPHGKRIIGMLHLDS

B1: Ic_S1_P5E.1_K5.1_C5.1_H5.1_A5.1_[A7G]_F5.1_[T8G]_T5.1 (ssRNA)
RNA: UCUCUUUGUAUUGGUAUCUCUU
B2: Ib_S1_P5E.1_K5.1_C5.1_H5.1_A5.1_[T6A]_F5.1_[T8A]_T5.1 (ssRNA)
RNA: UCUCUUUGUAUAAAUAUCUCUU
B3: Ic_S1_P5E.1_K5.1_C5.1_H5.1_A5.1_[T6A]_F5.1_[T8C]_T5.1 (ssRNA)
RNA: UCUCUUUGUAUAACUAUCUCUU
B4: Ib_S1_P5E.1_K5.1_C5.1_H5.1_A5.1_[A7C]_F5.1_[T8G]_T5.1 (ssRNA)
RNA: UCUCUUUGUAUUCGUAUCUCUU
B5: Id_ii_S2_P5E.2_K5.1_C5.2_[C-2A]_H5.1_A5.1_F5.1_T5.2_[A12T] (ssRNA)
RNA: UUUGAUUAAUAUGAUAUCGUUCUUUCUAUUGUAUUAUUAUUUUCUUUCUCGAUAUCAUAUUAAUCUUU
B6: Id_ii_S2_P5E.3_K5.2_C5.2_[C-2T]_[T-1G]_H5.2_A5.1_F5.1_T5.2_[T11G]_[A12C] (ssRNA)
RNA: B5 RNA with A28U, U29G, G31A, U40G, U41C
B7: Id_ii_S2_P5E.2_K5.1_C5.2_[T-1C]_H5.1_A5.1_F5.1_T5.2_[A12G] (ssRNA)
RNA: B5 RNA with A28C, U29C, U41G
B8: Id_ii_S2_P5E.3_K5.2_C5.2_[C-2T]_[T-1G]_H5.2_A5.1_F5.1_T5.2_[T11G]_[A12T] (ssRNA)
RNA: B5 RNA with A28U, U29G, G31A, U40G
B9: Id_ii_S2_P5E.2_K5.1_C5.2_[T-1C]_H5.1_A5.1_F5.1_T5.2_[T11A]_[A12T] (ssRNA)
RNA: B5 RNA with A28C, U29C, U40A
B10: Id_ii_S2_P5E.2_K5.1_C5.2_H5.1_A5.1_F5.1_T5.2_[T11A]_[A12C] (ssRNA)
RNA: B5 RNA with A28C, U40A, U41C
B11: Id_ii_S2_P5E.2_K5.1_C5.2_[T-1A]_H5.1_A5.1_F5.1_T5.2_[T11G]_[A12T] (ssRNA)
RNA: B5 RNA with A28C, U29A, U40G
B12: Id_ii_S2_P5E.3_K5.2_C5.2_[C-2T]_[T-1C]_H5.2_A5.1_F5.1_T5.2_[T11C]_[A12C] (ssRNA)
RNA: B5 RNA with A28U, U29C, G31A, U40C, U41C
B13: Id_ii_S2_P5E.3_K5.2_C5.2_[C-2G]_H5.2_A5.1_F5.1_T5.2_[T11C]_[A12C] (ssRNA)
RNA: B5 RNA with A28G, G31A, U40C, U41C
B14: Id_ii_S2_P5E.2_K5.1_C5.2_[T-1C]_H5.1_A5.1_F5.1_T5.2_[T11A] (ssRNA)
RNA: B5 RNA with A28C, U29C, U40A, U41A
B15: Id_ii_S2_P5E.2_K5.1_C5.2_[T-1G]_H5.1_A5.1_F5.1_T5.2_[T11A]_[A12C] (ssRNA)
RNA: B5 RNA with A28C, U29G, U40A, U41C
B16: Id_ii_S2_P5E.2_K5.1_C5.2_[T-1G]_H5.1_A5.1_F5.1_T5.2_[A12T] (ssRNA)
RNA: B5 RNA with A28C, U29G
B17: Id_ii_S2_P5E.3_K5.2_C5.2_[C-2T]_[T-1C]_H5.2_A5.1_F5.1_T5.2_[T11C]_[A12G] (ssRNA)
RNA: B5 RNA with A28U, U29C, G31A, U40C, U41G
B18: Id_ii_S2_P5E.3_K5.2_C5.2_[C-2T]_[T-1G]_H5.2_A5.1_F5.1_T5.2_[A12C] (ssRNA)
RNA: B5 RNA with A28U, U29G, G31A, U41C
B19: Id_ii_S2_P5E.2_K5.1_C5.2_[T-1C]_H5.1_A5.1_F5.1_T5.2_[T11A]_[A12C] (ssRNA)
RNA: B5 RNA with A28C, U29C, U40A, U41C
B20: Id_ii_S2_P5E.2_K5.1_C5.2_H5.1_A5.1_F5.1_T5.2_[T11A]_[A12T] (ssRNA)
RNA: B5 RNA with A28C, U40A
B21: Id_ii_S2_P5E.3_K5.2_C5.2_[C-2G]_[T-1C]_H5.2_A5.1_F5.1_T5.2_[T11A]_[A12T] (ssRNA)
RNA: B5 RNA with A28G, U29C, G31A, U40A
B22: Id_ii_S2_P5E.3_K5.2_C5.2_[C-2T]_[T-1G]_H5.2_A5.1_F5.1_T5.2_[T11A] (ssRNA)
RNA: B5 RNA with A28U, U29G, G31A, U40A, U41A
B23: Id_ii_S2_P5E.3_K5.2_C5.2_[C-2T]_[T-1G]_H5.2_A5.1_F5.1_T5.2_[A12T] (ssRNA)
RNA: B5 RNA with A28U, U29G, G31A
B24: Id_ii_S2_P5E.3_K5.2_C5.2_[C-2G]_H5.2_A5.1_F5.1_T5.2_[A12T] (ssRNA)
RNA: B5 RNA with A28G, G31A
B25: Id_ii_S2_P5E.2_K5.1_C5.2_[T-1C]_H5.1_A5.1_F5.1_T5.2_[A12T] (ssRNA)
RNA: B5 RNA with A28C, U29C
B26: Id_ii_S2_P5E.3_K5.2_C5.2_[C-2G]_[T-1C]_H5.2_A5.1_F5.1_T5.2_[T11C]_[A12T] (ssRNA)
RNA: B5 RNA with A28G, U29C, G31A, U40C
B27: Id_ii_S2_P5E.2_K5.1_C5.2_[T-1G]_H5.1_A5.1_F5.1_T5.2_[T11G]_[A12T] (ssRNA)
RNA: B5 RNA with A28C, U29G, U40G
B28: Id_ii_S2_P5E.3_K5.2_C5.2_[C-2G]_[T-1C]_H5.2_A5.1_F5.1_T5.2_[T11C]_[A12C] (ssRNA)
RNA: B5 RNA with A28G, U29C, G31A, U40C, U41C
B29: Id_ii_S2_P5E.3_K5.2_C5.2_[C-2G]_[T-1C]_H5.2_A5.1_F5.1_T5.2_[T11C]_[A12G] (ssRNA)
RNA: B5 RNA with A28G, U29C, G31A, U40C, U41G

What follows are binders tested against T1, PUF4 RNA-binding domain (assay: Mg; RNA-MaP; 20 mM Na-HEPES pH 7.4, 30 mM KOAc, 0.75 mM MgCl2, 0.1% Tween-20, 5% glycerol, 0.1 mg/mL BSA, 2 mM DTT; 25 C; 0.0125-409.6 nM protein). Details: tags: N-His6-TEV cleaved; C-SNAP kept, Cy3B-labelled; label: tethered on chip by stalled RNA polymerase.

Q: B1 was tested. Which Kd did it give?
A: 37.5 nM

Q: With B2 as the binder, how does the Kd read?
A: 11.7 nM

Q: With B3 as the binder, how does the Kd read?
A: 8.58 nM

Q: With B4 as the binder, how does the Kd read?
A: 19.1 nM

Q: With B5 as the binder, how does the Kd read?
A: 2.99 nM

Q: Which Kd does the source give for B6 here?
A: 0.514 nM

Q: B7 was tested. Which Kd did it give?
A: 2.27 nM

Q: B8 was tested. Which Kd did it give?
A: 0.685 nM

Q: Which Kd does the source give for B9 here?
A: 1.44 nM

Q: For B10, which Kd is on record?
A: 4.41 nM

Q: Which Kd does the source give for B11 here?
A: 2.92 nM

Q: B12 was tested. Which Kd did it give?
A: 65.6 nM

Q: B13 was tested. Which Kd did it give?
A: 14.9 nM

Q: B14 was tested. Which Kd did it give?
A: 3.1 nM

Q: Which Kd does the source give for B15 here?
A: 6.1 nM

Q: With B16 as the binder, how does the Kd read?
A: 1.54 nM

Q: With B17 as the binder, how does the Kd read?
A: 419 nM

Q: For B18, which Kd is on record?
A: 0.994 nM

Q: For B19, which Kd is on record?
A: 3.51 nM

Q: For B20, which Kd is on record?
A: 1.79 nM

Q: Which Kd does the source give for B21 here?
A: 95.1 nM

Q: For B22, which Kd is on record?
A: 0.435 nM

Q: B23 was tested. Which Kd did it give?
A: 0.297 nM

Q: How did the Kd turn out when B24 was run?
A: 11.7 nM

Q: How did the Kd turn out when B25 was run?
A: 0.992 nM

Q: For B26, which Kd is on record?
A: 161 nM

Q: With B27 as the binder, how does the Kd read?
A: 1.86 nM

Q: Which Kd does the source give for B28 here?
A: 133 nM

Q: For B29, which Kd is on record?
A: 635 nM
